# In patent US20170275344A1, “POLYPEPTIDES AND USES THEREOF AS A DRUG FOR TREATMENT OF AUTOIMMUNE DISORDERS” (Compugen Ltd., priority 2014, published 2017):
# B1: C1ORF32 ECD-Fc (SEQ ID NO:42): fusion protein of human C1ORF32 ECD fused to mouse immunoglobulin Fc (human-mouse fusion protein) (protein)
# chain: LQVTVPDKKKVAMLFQPTVLRCHFSTSSHQPAVVQWKFKSYCQDRMGESLGMSSTRAQSLSKRNLEWDPYLDCLDSRRTVRVVASKQGSTVTLGDFYRGREITIVHDADLQIGKLMWGDSGLYYCIITTPDDLEGKNEDSVELLVLGRTGLLADLLPSFAVEIMGSENLYFQGSGEPRGPTIKPCPPCKCPAPNLLGGPSVFIFPPKIKDVLMISLSPIVTCVVVDVSEDDPDVQISWFVNNVEVHTAQTQTHREDYNSTLRVVSALPIQHQDWMSGKEFKCKVNNKDLPAPIERTISKPKGSVRAPQVYVLPPPEEEMTKKQVTLTCMVTDFMPEDIYVEWTNNGKTELNYKNTEPVLDSDGSYFMYSKLRVEKKNWVERNSYSCSVVHEGLHNHHTTKSFSRTPGK
# modifications: Fusion protein human C1ORF32-ECD fused to mouse IgG2a Fc
# How the values were obtained:
# Male DBA/1O1aHsd mice = assay: CIA model, early stage treatment from day 18; type: in vivo, mouse
# Excerpt: The aim of this study was to estimate the effect of C1ORF32-P8-V1-ECD-mFc (SEQ ID NO:42) on disease development in a type II Collagen induced arthritis (CIA) mouse model upon administration at early stage of disease; i.e., when specific and predictive markers for RA development are present in the serum, but before onset of clinical symptoms.
# In the CIA model, arthritis is induced by immunization with type II collagen in CFA on day 1 which is followed by boosting with type II collagen in CFA on day 21. Antibodies against both CII and cyclic citrullinated peptide (CCPs) appear early after immunization, before joint swelling is observed.
# To evaluate the effect of early stage treatment with C1ORF32-P8-V1-ECD-mFc (SEQ ID NO:42) on disease development treatment started on day 18 and was given IP injection, Q2D to mice from day 18 until day 32.
# Male DBA/1O1aHsd mice weighing 16-25 grams (mean 22 g) on day 18 of the study were obtained from Harlan, Inc., Indianapolis, Ind. Mice (10/group) were anaesthetized with Isoflurane, shaved at the base of the tail, and injected intradermally with 150 μl of Freund's Complete Adjuvant (Sigma) containing bovine type II collagen (Elastin Products, Owensville, Mo.) (2 mg/me at the base of the tail on day 0 and again on day 21. On study day 18, mice were randomized by body weight into treatment groups. Treatment was initiated after enrollment and continued every other day (Q2D at 48 h intervals) through study day 33. On study days 23-34, onset of arthritis occurred. Mice were terminated on study day 34. Clinical scores were given for each of the paws (right front, left front, right rear, left rear) on arthritis days 18-34.
# Mice were weighed on study days 18, 20, 22, 24, 26, 28, 30, 32 and 34 (prior to necropsy). […]
# total splenocytes = assay: Ex vivo recall responses of splenocytes, week 8 post bone marrow transplant; type: cell-based, mouse
# Procedure: (§1) On week 8 post bone marrow cell transplantion, total splenocytes (5×10^5 cells/well) were cultured in the presence of medium alone (no stimulation), anti-CD3 (1 ug/ml), DBY peptide (10 ug/ml), irradiated male splenocytes (5×10^5 cells/well), or irradiated female splenocytes (5×10^5 cells/well). The individual splenocyte samples were cultured separately in triplicate wells. For T cell proliferative response, the cultures were pulsed with 1 uCi of tritiated thymidine at 24 hours and harvested at 72 hours post culture initiation. The statistical analysis carried out on the data is one-way ANOVA followed by Dunnett's post test as compared to the mice receiving male CD45.1+ bone marrow cells plus Control Ig treatment, p-values*<0.05, **<0.01,***<0.001, and #<0.0001.
# as §1, with “transplant,” for “transplantion,”, “For” for “For T cell proliferative response,”, “cytokine cultures, the supernatants” for “cultures”, “collected” for “pulsed with 1 uCi of tritiated thymidine at 24 hours and harvested”, “initiation and the level of secreted cytokine was determined via LiquiChip.” for “initiation.”
# These same populations of cells were analyzed at week 8 within the spleen. In addition, the proliferative and secreted cytokine responses of total splenocytes in ex vivo recall cultures were tested in the presence of medium alone, anti-CD3 (1 ug/ml), the HY antigen DBY peptide (NAGFNSNRANSSRSS; Genemed Synthesis; San Antonio, Tex.) (10 ug/ml), irradiated male splenocytes (1:1 ratio), or irradiated female splenocytes (1:1 ratio).
# [1] = tested on: total splenocytes and lymph node cells; assay: Ex vivo recall responses in adoptive transfer R-EAE; type: cell-based, mouse
# Procedure: On day 45 (unless otherwise indicated) following cell transfer, spleen and cervical lymph nodes or CNS from 3 representative mice of each group were collected, and the total cells were activated ex vivo at 0.5×10^6 cells per well with either OVA323-339, PLP139-151, PLP178-191, MBP84-104 (20 ug/ml), or anti-CD3 (1 ug/ml). Two sets of cultures were set up side-by-side. One set was pulsed with 1 uCi of tritiated thymidine at 24 hours and harvested at 72 hours to determine cell proliferation. In the second set of cultures, supernatants were collected at 72 hours and tested for peptide-specific cytokine production as determined by LiquiChip.
molecule,measurement,setting,value
B1,effect of the lower dose,Male DBA/1O1aHsd mice; 3.3 mg/kg IP Q2D,No effect
same,clinical arthritis score,"Male DBA/1O1aHsd mice; 10 mg/kg IP Q2D from day 18, vs PBS or mIgG2a, did not reach significance",inhibition of clinical arthritis score
same,body weight loss (percent change from baseline),"Male DBA/1O1aHsd mice; 10 mg/kg, from study day 30 until termination, data not shown",significantly inhibited toward normal
same,"inflammatory cytokines (IFN-gamma, IL-17, GM-CSF, IL-12, IL-2 and TNF-alpha)","total splenocytes; activation with male irradiated splenocytes or DBY peptide, vs Ig control treated mice",significantly lower levels
same,"IFNg, IL-17, IL-2, IL-12 and GM-CSF secretion",total splenocytes; cultures stimulated with male irradiated splenocytes,inhibitory trend
same,level of IL-10 and IL-4 secreted,"total splenocytes; splenocytes of treated mice, in response to male or female splenocytes",significantly increased
same,recall responses of CNS cells to PLP139-151 and anti CD3,"[1]; day 10, treatment from time of cell transfer",abolished
same,GM-CSF secretion,"[1]; day 45, activation with PLP139-151 and PLP178-191",inhibition of GM-CSF secretion
same,IFN-gamma and IL-17 secretion,"[1]; day 45, activation with anti-CD3, PLP139-151, and PLP178-191",inhibition
same,splenocyte secretion of IL-4 and IL-10,"[1]; day 45, in response to PLP139-151",increased splenocyte secretion
same,recall responses: cellular proliferation of splenocytes and lymph node cells,"[1]; day 45, treatment from onset of remission",decreased level of cellular proliferation
